In patent US20200369781A1 (published 2020):
Positions count from the first letter of the chain named.

Legend:
[1] = target: T1, soluble human IL-6R (human, UniProt P08887 20-357); test: BLI (Octet), in the same way as in Example 3
T1 construct: 152, 4958-4968 (1994); also called hsIL-6R; recombinant human IL-6R
T1 sequence: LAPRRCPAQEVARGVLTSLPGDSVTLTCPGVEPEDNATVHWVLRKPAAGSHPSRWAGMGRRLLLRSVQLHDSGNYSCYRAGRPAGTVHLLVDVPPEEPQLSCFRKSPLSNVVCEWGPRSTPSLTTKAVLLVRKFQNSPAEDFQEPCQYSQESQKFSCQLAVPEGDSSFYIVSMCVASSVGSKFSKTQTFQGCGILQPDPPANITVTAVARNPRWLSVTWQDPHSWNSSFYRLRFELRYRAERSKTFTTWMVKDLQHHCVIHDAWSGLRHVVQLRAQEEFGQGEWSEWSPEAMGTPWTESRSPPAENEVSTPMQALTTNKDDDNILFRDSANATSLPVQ

[2] = target: T1, soluble human IL-6R; test: BLI (Octet), in the same way as in Example 3, 30 C or 25 C
[3] = target: T1, soluble human IL-6R; test: BLI (Octet HTX), molecule captured on Protein A biosensor, hsIL-6R as analyte, 30 C
Description: The hsIL-6R binding evaluation of each molecule was conducted using Octet HTX (Pall ForteBio Corp.). Specifically, each molecule was allowed to bind to Biosensor/Protein A (ProA) (Pall ForteBio Corp., 18-5013), and hsIL-6R was allowed to act thereon, followed by binding evaluation at 30° C.

B1: 20A11-G1m/VK2-28-k0MT (antibody, human IgG1, kappa, V domains shown)
VH: EVQLVESGGGLVQPGGSLRLSCAASGSVFKINVMAWYRQAPGKGRELVAGIISGGSTSYADSVKGRFTISRDNAKNTLYLQMNSLRPEDTAVYYCAFITTESDYDLGRRYWGQGTLVTVSS
VL: not shown
notes: IgG antibody-like molecule with VHH 20A11 in place of VH
- binding result [1]: binds

B2: 20A11hu-G1m/VK2-28-k0MT (antibody, human IgG1, kappa, V domains shown)
VH: B1 VH with Y37V, R45L, L47W
VL: not shown
notes: IgG antibody-like molecule with VHH 20A11hu in place of VH
- binding result [2]: no binding

B3: IL6R90-G1m/VK2-28-k0MT (antibody, human IgG1, kappa, V domains shown)
VH: EVQLVESGGGLVQPGGSLRLSCAASGFTFDDYGMSWVRQAPGKALEWVSAISWNGNNTYYTESMKGRFTISRDNAKNTLYLQMNSLRPEDTAVYYCVKGSTAIVGVPPTYPDEYDYWGQGTLVTVSS
VL: not shown
notes: IgG antibody-like molecule with VHH IL6R90 in place of VH
- binding result [3]: no binding
